Assay results taken from US20250304677A1 (VIB VZW, published 2025).
Residue numbers refer to the chain shown, from its start. Names and notes keep the numbering of the source. Values joined by “and” are separate entries in the source; they are usually repeats but may differ in a detail not shown here. Equal entries are not always repeated.

B1: P01500019: 2HF09(Q1E, Q5V, A14P, G26E, G28P, I51V, G54H, D72E, N73G, L79Y, K83R, Q108L)-HIS6 (VHH)
VHH: EVQLVESGGGLVQPGGSLRLSCAASESPFSGMIMGWYRQAPGKQRELVATVTSHGTTNYADSVKGRFTISREGAKNTVYLQMNSLRPEDTAVYYCNAHFPGIYWGKGTLVTVSS
notes: Entry includes the tag; also called P0150019; P01500001[G26E, G28P, D72E, N73G]
B2: P01500041: P01500001(D72P, N73G)-FLAG3-HIS6 (VHH)
VHH: B1 VHH with E26G, P28G, E72P
notes: also called P0150041
B3: P01500055: P01500001(V51R, D72E, N73G)-FLAG3-HIS6 (VHH)
VHH: B1 VHH with E26G, P28G, V51R
notes: also called P0150055
B4: P01500043: P01500001(G28T, I33L, D72E)-FLAG3-HIS6 (VHH)
VHH: B1 VHH with E26G, P28T, I33L, G73N
notes: also called P0150043
B5: P01500053: P01500001(S30I, I33L, N73P)-FLAG3-HIS6 (VHH)
VHH: B1 VHH with E26G, P28G, S30I, I33L, E72D, G73P
notes: also called P0150053
B6: P01500059: P01500001(G26E, D72E)-FLAG3-HIS6 (VHH)
VHH: B1 VHH with P28G, G73N
notes: also called P0150059
B7: P01500052: P01500001(V51R, D72E)-FLAG3-HIS6 (VHH)
VHH: B1 VHH with E26G, P28G, V51R, G73N
notes: also called P0150052
B8: P01500049: P01500001(G26E)-FLAG3-HIS6 (VHH)
VHH: B1 VHH with P28G, E72D, G73N
notes: also called P0150049
B9: P01500058: P01500001(G26E, G28P)-FLAG3-HIS6 (VHH)
VHH: B1 VHH with E72D, G73N
notes: also called P0150058
B10: P01500047: P01500001(G26E, G28T, S30I, I33L)-FLAG3-HIS6 (VHH)
VHH: B1 VHH with P28T, S30I, I33L, E72D, G73N
notes: also called P0150047
B11: P01500048: P01500001(S30I, D72P)-FLAG3-HIS6 (VHH)
VHH: B1 VHH with E26G, P28G, S30I, E72P, G73N
notes: also called P0150048
B12: P01500042: P01500001(G28T, S30I)-FLAG3-HIS6 (VHH)
VHH: B1 VHH with E26G, P28T, S30I, E72D, G73N
notes: also called P0150042
B13: P01500046: P01500001(N73P)-FLAG3-HIS6 (VHH)
VHH: B1 VHH with E26G, P28G, E72D, G73P
notes: also called P0150046
B14: P01500082: P0150001 with A24V, S27L, M32I (VHH)
VHH: B1 VHH with A24V, E26G, S27L, P28G, M32I, E72D, G73N
B15: P01500083: P0150001 with A24V, S27L, M32I, N76D (VHH)
VHH: B1 VHH with A24V, E26G, S27L, P28G, M32I, E72D, G73N, N76D
B16: P01500044: P01500001(S30I, D72E, N73G)-FLAG3-HIS6 (VHH)
VHH: B1 VHH with E26G, P28G, S30I
notes: also called P0150044
B17: P01500050: P01500001(G28T, D72P)-FLAG3-HIS6 (VHH)
VHH: B1 VHH with E26G, P28T, E72P, G73N
notes: also called P0150050
B18: P01500045: P01500001(G26E, I33L)-FLAG3-HIS6 (VHH)
VHH: B1 VHH with P28G, I33L, E72D, G73N
notes: also called P0150045
B19: P01500056: P01500001(I33L, D72P, N73G)-FLAG3-HIS6 (VHH)
VHH: B1 VHH with E26G, P28G, I33L, E72P
notes: also called P0150056
B20: P01500051: P01500001(D72E, N73G)-FLAG3-HIS6 (VHH)
VHH: B1 VHH with E26G, P28G
notes: also called P0150051
B21: P01500054: P01500001(I33L, N73P)-FLAG3-HIS6 (VHH)
VHH: B1 VHH with E26G, P28G, I33L, E72D, G73P
notes: also called P0150054
B22: P01500057: P01500001(G26E, G28P, D72E, N73G)-FLAG3-HIS6 (VHH)
VHH: B1 VHH
notes: also called P0150057

How the values were obtained:
[1] = biological target: T1, human folate receptor alpha (hFRα), recombinant protein (human, UniProt P15328 25-233); experiment: BLI, Avi-biotinylated FRα
T1 construct: Bought recombinant proteins (His-tagged, or biotinylated via Avi-tag, e.g. AcroBiosystems FO1-H82E2, F01-H52H1); also called hFOLR1; huFOLR1
T1 sequence (P15328 25-233 limits assumed): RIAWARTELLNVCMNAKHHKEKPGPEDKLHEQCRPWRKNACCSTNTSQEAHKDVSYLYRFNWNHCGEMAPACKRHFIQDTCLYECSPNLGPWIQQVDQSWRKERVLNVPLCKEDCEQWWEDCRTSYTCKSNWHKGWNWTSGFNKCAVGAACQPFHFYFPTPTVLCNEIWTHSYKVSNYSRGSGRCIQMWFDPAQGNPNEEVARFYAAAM
Protocol: (§1) Purified VHHs ^{∘}100 nM) were analysed for binding to avi-tagged biotinylated FRα protein captured on streptavidin-biosensors via BLI.
(§2) Off-rates of purified variants were determined to human, mouse, and cynomolgus FRα in BLI. In addition, binding of the affinity optimised variants to cell-expressed human FRα on HeLa cells was determined by flow cytometry ^{∘}FIG. 10 B).

[2] = biological target: T2, mouse folate receptor alpha (mFRα), recombinant protein (mouse, UniProt P35846 25-232); experiment: BLI, Avi-biotinylated FRα
T2 construct: Bought recombinant proteins (e.g. biotinylated, Acro Biosystems FO1-M82E9); also called mFOLR1; Ms FOLR1
T2 sequence (P35846 25-232 limits assumed): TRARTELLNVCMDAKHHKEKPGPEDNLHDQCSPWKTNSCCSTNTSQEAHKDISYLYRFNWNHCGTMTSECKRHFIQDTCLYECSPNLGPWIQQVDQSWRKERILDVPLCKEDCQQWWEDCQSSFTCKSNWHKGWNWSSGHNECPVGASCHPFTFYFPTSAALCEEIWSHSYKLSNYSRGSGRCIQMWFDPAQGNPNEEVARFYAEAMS
Protocol: as §1, §2

[3] = biological target: T3, human folate receptor alpha expressed on cells (transfected HEK293T, HeLa, MCF7, MDA-MB-231) (human, UniProt P15328 25-234); experiment: flow cytometry on HeLa cells, anti-Flag detection
T3 construct: HEK293T transiently transfected with human FOLR1; also called native human FRα; cell-expressed human FOLR1
T3 sequence (P15328 25-234 limits assumed): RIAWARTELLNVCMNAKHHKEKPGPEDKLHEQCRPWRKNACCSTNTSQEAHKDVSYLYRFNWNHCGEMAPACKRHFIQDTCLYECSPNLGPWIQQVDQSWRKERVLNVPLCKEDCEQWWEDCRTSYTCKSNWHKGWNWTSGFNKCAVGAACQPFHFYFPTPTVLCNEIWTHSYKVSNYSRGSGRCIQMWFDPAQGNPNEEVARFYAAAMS
Protocol: EC₅₀ values are found in Table 9. Detection of VHH cell binding was done through anti-Flag M2 mIgG1 followed by anti-mFc-PE in flow cytometry. Results are depicted as mean fluorescence intensity ^{∘}MFI).
as §2

[4] = biological target: T1, human folate receptor alpha (hFRα), …; experiment: BLI, purified VHH
Summary of the method: (§3)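 Off-rates to folate receptor alpha from human, mouse and cynomolgus were measured by biolayer interferometry. The VHH proteins tested were made with a flag3-His6 tag in TG-1 E. coli at 0.5 L scale and isolated from the periplasm on Ni Sepharose FastFlow columns.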

[5] = biological target: T4, cynomolgus folate receptor alpha, recombinant (cynomolgus, UniProt A0A2K5U044 25-233); experiment: BLI, purified VHH
T4 construct: also called cyFOLR1; cynomolgus FRα
T4 sequence (A0A2K5U044 entry or part of it): as the sequence (P15328 25-233 limits assumed) above, with I2T, W4R, R37K, A146P, H171Y counted along it
Summary of the method: as §3

[6] = biological target: T2, mouse folate receptor alpha (mFRα), …; experiment: BLI, purified VHH
Summary of the method: as §3

[7] = biological target: T2, mouse folate receptor alpha (mFRα), …; experiment: BLI
Summary of the method: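 Fold change compares each variant with its wild-type VHH, as the negative of variant koff over wild-type koff for a worse off-rate, or wild-type koff over variant koff for a better one. Off-rates came from biolayer interferometry against biotinylated human and mouse folate receptor alpha on streptavidin biosensors. Calculation of koff relied on a 1:1 binding model.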

Binder	koff [1]	koff [2]	EC50 [3]	MFI top [3]	koff [4]	koff [5]	koff [6]	koff [7]	nm (Fold wt) [7]
B1	0.000206 s⁻¹	8.33e-05 s⁻¹							
B2	0.00113 s⁻¹	0.000191 s⁻¹	4.2 nM	63000 MFI	0.00094 s⁻¹	0.00014 s⁻¹	0.00014 s⁻¹		
B3	0.000382 s⁻¹	2.4e-05 s⁻¹	3.77 nM	59000 MFI	0.000382 s⁻¹	4.24e-05 s⁻¹	2.4e-05 s⁻¹		
B4	0.000639 s⁻¹	0.000114 s⁻¹	2.4 nM	60200 MFI	0.000534 s⁻¹	0.000428 s⁻¹	0.000114 s⁻¹		
B5	0.000922 s⁻¹ and 0.00105 s⁻¹	0.000167 s⁻¹ and 0.000214 s⁻¹	2.63 nM	51200 MFI	0.000943 s⁻¹	0.000167 s⁻¹	0.000191 s⁻¹		
B6	0.0019 s⁻¹	0.000292 s⁻¹			0.00204 s⁻¹	0.000292 s⁻¹	0.000333 s⁻¹		
B7	0.0018 s⁻¹	0.000246 s⁻¹	4.35 nM	53900 MFI	0.00146 s⁻¹	0.00281 s⁻¹	0.000246 s⁻¹		
B8	0.00648 s⁻¹	0.000826 s⁻¹	10.9 nM	46600 MFI	0.00569 s⁻¹	0.000393 s⁻¹	0.00105 s⁻¹		
B9	0.00285 s⁻¹	0.000484 s⁻¹			0.00318 s⁻¹	0.00369 s⁻¹	0.000484 s⁻¹		
B10	0.00119 s⁻¹	0.000219 s⁻¹	3.19 nM	59100 MFI	0.000971 s⁻¹	0.000219 s⁻¹	0.000219 s⁻¹		
B11	0.00147 s⁻¹	0.000142 s⁻¹	2.46 nM	59800 MFI	0.0013 s⁻¹	0.00133 s⁻¹	0.000142 s⁻¹		
B12	0.00338 s⁻¹	0.00038 s⁻¹	5.19 nM	54700 MFI	0.00274 s⁻¹	0.00038 s⁻¹	0.00038 s⁻¹		
B13	0.00371 s⁻¹ and 0.004 s⁻¹	0.000777 s⁻¹ and 0.000731 s⁻¹	6.91 nM	50800 MFI	0.00361 s⁻¹	0.0036 s⁻¹	0.000754 s⁻¹		
B14								0.0618 s⁻¹	38
B15								0.0975 s⁻¹	60
B16	0.000555 s⁻¹	0.000126 s⁻¹	3.29 nM	64100 MFI	0.000464 s⁻¹	0.000737 s⁻¹	0.000126 s⁻¹		
B17	0.00128 s⁻¹	0.000168 s⁻¹	3.61 nM	62500 MFI	0.00105 s⁻¹	0.00109 s⁻¹	0.000168 s⁻¹		
B18	0.00187 s⁻¹	0.00036 s⁻¹	4.71 nM	58900 MFI	0.00157 s⁻¹	0.00036 s⁻¹	0.00036 s⁻¹		
B19	0.000295 s⁻¹	3.38e-05 s⁻¹	2.52 nM	55300 MFI	0.000265 s⁻¹	0.00034 s⁻¹	3.38e-05 s⁻¹		
B20	0.000474 s⁻¹ and 0.000555 s⁻¹	4.99e-05 s⁻¹ and 8.33e-05 s⁻¹	3.31 nM	61000 MFI	0.000546 s⁻¹	0.00078 s⁻¹	8.41e-05 s⁻¹		
B21	0.000937 s⁻¹	0.000147 s⁻¹	5.18 nM	55800 MFI	0.000968 s⁻¹	0.000147 s⁻¹	0.000147 s⁻¹		
B22	0.000316 s⁻¹	2.11e-05 s⁻¹	2.56 nM	53800 MFI	0.000307 s⁻¹	0.000234 s⁻¹	2.11e-05 s⁻¹		
